Consider six compounds from ChEMBL document CHEMBL1142227, “Structural basis for the high all-trans-retinaldehyde reductase activity of the tumor marker AKR1B10” (Proc Natl Acad Sci U S A, 2007).

Data set [1] has as its system CC1=C(/C=C/C(C)=C\C=C\C(C)=C\C=O)C(C)(C)CCC1. Nature of the data set: (§1) Activity of human AKR1B1 by BSA/HPLC method.
Data set [2] has as its system CC1=C(/C=C/C(C)=C/C=C/C(C)=C/C=O)C(C)(C)CCC1. Described as §1.
The subject of data set [3] is O=CC(O)CO. The description is as §1.
In data set [4] the test system is CC1=C(/C=C/C(C)=C/C=C/C(C)=C/C=O)C(C)(C)C[C@@H](O)C1. Nature of the data set: (§2) Activity of human AKR1B1 by Tween 80 / spectrophotometer method.
Data set [5] relates to CC1=C(/C=C/C(C)=C/C=C/C(C)=C/C=O)C(C)(C)CCC1. The description is as §2.
Data set [6] has as its system CC1=C(/C=C/C(C)=C\C=C\C(C)=C\C=O)C(C)(C)CCC1. The experiment in a line: (§3) Ratio of Kcat to Km for human AKR1B1.
For data set [7], the system named is CC1=C(/C=C/C(C)=C/C=C/C(C)=C/C=O)C(C)(C)CCC1. The description is as §3.
In data set [8] the test system is O=CC(O)CO. The description is as §3.
The test system of data set [9] is CC1=C(/C=C/C(C)=C\C=C\C(C)=C\C=O)C(C)(C)CCC1. The experiment in a line: (§4) Activity of human AKR1B10 V301L mutant by BSA/HPLC method.
Data set [10] deals with CC1=C(/C=C/C(C)=C/C=C/C(C)=C/C=O)C(C)(C)CCC1. The data set is described as §4.
The test system of data set [11] is O=CC(O)CO. The data set is described as §4.
For data set [12], the system named is CC1=C(/C=C/C(C)=C\C=C\C(C)=C\C=O)C(C)(C)CCC1. The experiment in a line: (§5) Ratio of Kcat to Km for human AKR1B10 V301L mutant.
Data set [13] relates to CC1=C(/C=C/C(C)=C/C=C/C(C)=C/C=O)C(C)(C)CCC1. Described as §5.
For data set [14], the system named is O=CC(O)CO. The data set is described as §5.
Data set [15] relates to CC1=C(/C=C/C(C)=C/C=C/C(C)=C/C=O)C(C)(C)CCC1. The experiment in a line: (§6) Ratio of Kcat to Km for human AKR1B10 K125L/V301L mutant.
Data set [16] has as its system O=CC(O)CO. Described as §6.
For data set [17], the system named is CC1=C(/C=C/C(C)=C/C=C/C(C)=C/C=O)C(C)(C)CCC1. The experiment in a line: (§7) Activity of human AKR1B10 K125L/V301L mutant by BSA/HPLC method.
The test system of data set [18] is O=CC(O)CO. The description is as §7.
Data set [19] has as its system CC1=C(/C=C/C(C)=C\C=C\C(C)=C\C=O)C(C)(C)CCC1. Nature of the data set: (§8) Ratio of Kcat to Km for human AKR1B10 K125L mutant.
The test system of data set [20] is CC1=C(/C=C/C(C)=C/C=C/C(C)=C/C=O)C(C)(C)CCC1. Described as §8.
Data set [21] concerns O=CC(O)CO. The data set is described as §8.
Data set [22] has as its system CC1=C(/C=C/C(C)=C\C=C\C(C)=C\C=O)C(C)(C)CCC1. The experiment in a line: (§9) Activity of human AKR1B10 K125L mutant by BSA/HPLC method.
Data set [23] relates to CC1=C(/C=C/C(C)=C/C=C/C(C)=C/C=O)C(C)(C)CCC1. The data set is described as §9.
Data set [24] deals with O=CC(O)CO. Described as §9.
Data set [25] concerns CC1=C(/C=C/C(C)=C/C=C/C(C)=C/C=O)C(C)(C)C[C@@H](O)C1. Nature of the data set: (§10) Activity of human AKR1B10 K125L mutant by Tween 80 / spectrophotometer method.
Data set [26] has as its system CC1=C(/C=C/C(C)=C/C=C/C(C)=C/C=O)C(C)(C)CCC1. The data set is described as §10.
Data set [27] concerns CC1=C(/C=C/C(C)=C\C=C\C(C)=C\C=O)C(C)(C)CCC1. Nature of the data set: (§11) Activity of human wild type AKR1B10 by BSA/HPLC method.
Data set [28] concerns CC1=C(/C=C/C(C)=C/C=C/C(C)=C/C=O)C(C)(C)CCC1. The description is as §11.
For data set [29], the system named is O=CC(O)CO. Described as §11.
The test system of data set [30] is CC1=C(/C=C/C(C)=C/C=C/C(C)=C/C=O)C(C)(C)C[C@@H](O)C1. The experiment in a line: (§12) Activity of human wild type AKR1B10 by Tween 80 / spectrophotometer method.
Data set [31] concerns CC1=C(/C=C/C(C)=C/C=C/C(C)=C/C=O)C(C)(C)CCC1. Described as §12.
Data set [32] relates to CC1=C(/C=C/C(C)=C\C=C\C(C)=C\C=O)C(C)(C)CCC1. Nature of the data set: (§13) Ratio of Kcat to Km for human wild type AKR1B10.
Data set [33] relates to CC1=C(/C=C/C(C)=C/C=C/C(C)=C/C=O)C(C)(C)CCC1. Described as §13.
The subject of data set [34] is O=CC(O)CO. The description is as §13.
Data set [35] concerns the target Aldo-keto reductase family 1 member B10 (Homo sapiens) (UniProt O60218). The experiment in a line: Inhibition of retinaldehyde reductase activity of human AKR1B10 expressed in COS7 cells at 1 uM relative to control. The format is cell-based. More on the design: scale not given: the % may be the effect or the level left. The settings on record: COS-7.

Chain of Aldo-keto reductase family 1 member B10 (Homo sapiens), O60218 K125L (O60218 whole entry K125L): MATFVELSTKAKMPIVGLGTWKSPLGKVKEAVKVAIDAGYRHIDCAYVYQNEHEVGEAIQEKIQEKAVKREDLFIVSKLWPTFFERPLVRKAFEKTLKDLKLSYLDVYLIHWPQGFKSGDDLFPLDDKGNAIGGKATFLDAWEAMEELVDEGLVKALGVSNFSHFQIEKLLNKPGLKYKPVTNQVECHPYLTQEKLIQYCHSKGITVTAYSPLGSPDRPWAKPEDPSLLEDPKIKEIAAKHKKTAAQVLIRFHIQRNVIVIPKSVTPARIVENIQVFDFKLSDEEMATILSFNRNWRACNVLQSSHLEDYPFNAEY
Chain of Aldo-keto reductase family 1 member B10 (Homo sapiens), O60218 V301L (O60218 whole entry V301L): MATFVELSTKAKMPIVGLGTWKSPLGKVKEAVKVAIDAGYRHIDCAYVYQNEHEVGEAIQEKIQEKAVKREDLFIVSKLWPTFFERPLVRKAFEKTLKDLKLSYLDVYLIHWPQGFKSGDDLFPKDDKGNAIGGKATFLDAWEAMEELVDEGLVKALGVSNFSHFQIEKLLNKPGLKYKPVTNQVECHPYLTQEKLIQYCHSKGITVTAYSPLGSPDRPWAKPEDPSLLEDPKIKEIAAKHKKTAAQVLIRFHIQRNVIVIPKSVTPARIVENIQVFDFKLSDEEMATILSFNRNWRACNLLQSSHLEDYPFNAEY
Chain of Aldo-keto reductase family 1 member B10 (Homo sapiens), O60218 K125L,V301L (O60218 whole entry K125L/V301L): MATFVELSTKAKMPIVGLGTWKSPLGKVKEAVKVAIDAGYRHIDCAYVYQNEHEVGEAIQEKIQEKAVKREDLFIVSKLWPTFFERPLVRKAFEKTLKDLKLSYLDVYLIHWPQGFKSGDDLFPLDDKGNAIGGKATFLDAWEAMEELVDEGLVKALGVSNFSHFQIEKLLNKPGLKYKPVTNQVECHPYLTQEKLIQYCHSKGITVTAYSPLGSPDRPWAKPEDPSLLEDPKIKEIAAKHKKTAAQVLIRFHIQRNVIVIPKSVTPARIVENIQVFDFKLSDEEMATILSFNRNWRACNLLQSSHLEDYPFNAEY
Chain of Aldo-keto reductase family 1 member B10 (Homo sapiens), O60218 (O60218 whole entry): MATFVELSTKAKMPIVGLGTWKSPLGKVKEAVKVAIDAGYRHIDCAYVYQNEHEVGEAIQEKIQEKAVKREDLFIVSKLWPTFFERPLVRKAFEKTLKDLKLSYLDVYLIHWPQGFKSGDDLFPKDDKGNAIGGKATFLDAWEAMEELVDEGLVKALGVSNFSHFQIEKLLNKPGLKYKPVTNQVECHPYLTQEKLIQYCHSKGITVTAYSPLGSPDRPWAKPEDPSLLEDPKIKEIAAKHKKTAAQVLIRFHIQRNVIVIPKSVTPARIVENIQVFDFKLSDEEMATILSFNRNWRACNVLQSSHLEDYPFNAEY
Chain of Aldo-keto reductase family 1 member B10 (Homo sapiens) (O60218 whole entry, looked up): as the sequence (O60218 whole entry) above

A word on the Km: it is the concentration of substrate that gives half-maximal velocity. The kcat is the number of substrate molecules converted per active site and unit of time at saturation. One may read the kcat/Km as the turnover number divided by the Michaelis constant. Consider “Aldo-keto reductase family 1 member B1 (Homo sapiens) (from UniProt P15121)”, for which the values for the Michaelis-Menten constant (Km) (in [1]; in [2]; with O=CC(O)CO [3]) were 0.4 µM, 1.1 µM and 50 µM, respectively. Moreover, the kcat was determined as 0.0117 s⁻¹ in data set [1]; 0.00583 s⁻¹ in data set [2]; 0.517 s⁻¹ with O=CC(O)CO [3]; 0.0967 s⁻¹ in [4]; 0.00617 s⁻¹ in data set [5]. The kcat/Km in [6] came to 25000 M⁻¹ s⁻¹; in data set [7] it was 5330 M⁻¹ s⁻¹; with O=CC(O)CO [8] it was 11000 M⁻¹ s⁻¹.

As for “Aldo-keto reductase family 1 member B10 (Homo sapiens), O60218 V301L”, the Km came to 0.3 µM in data set [9], 0.6 µM in data set [10] and 6000 µM in the data set with O=CC(O)CO [11]. The figures for the turnover number (kcat) (in data set [9]; in data set [10]; in the data set with O=CC(O)CO [11]) were 0.01 s⁻¹, 0.128 s⁻¹ and 0.683 s⁻¹, respectively. Moreover, the results for the kcat/Km (in data set [12]; in data set [13]; in the data set with O=CC(O)CO [14]) were 30000 M⁻¹ s⁻¹, 212000 M⁻¹ s⁻¹ and 117 M⁻¹ s⁻¹, respectively.

On to “Aldo-keto reductase family 1 member B10 (Homo sapiens), O60218 K125L,V301L”, for which the kcat/Km in data set [15] turned out to be 58300 M⁻¹ s⁻¹; in the data set on O=CC(O)CO [16] it was 81.7 M⁻¹ s⁻¹. Also, the Michaelis constant (Km) was 1 µM in data set [17] and 7300 µM with O=CC(O)CO [18]. In addition, the kcat in data set [17] came to 0.0583 s⁻¹; with O=CC(O)CO [18] it was 0.59 s⁻¹.

As to “Aldo-keto reductase family 1 member B10 (Homo sapiens), O60218 K125L”, the kcat/Km in data set [19] turned out to be 21700 M⁻¹ s⁻¹; in [20] it was 218000 M⁻¹ s⁻¹; with O=CC(O)CO [21], 117 M⁻¹ s⁻¹. For the same compound, the Km stood at 0.7 µM in data set [22], 0.15 µM in data set [23] and 5200 µM with O=CC(O)CO [24]. The turnover number (kcat) stood at 0.015 s⁻¹ in data set [22]; 0.0333 s⁻¹ in [23]; 0.593 s⁻¹ with O=CC(O)CO [24]; 0.308 s⁻¹ in data set [25]; 0.0733 s⁻¹ in data set [26].

Consider “Aldo-keto reductase family 1 member B10 (Homo sapiens), O60218”, for which the Km in data set [27] worked out at 0.7 µM; in data set [28] it was 0.6 µM; in the data set on O=CC(O)CO [29], 6000 µM. Further, the kcat in [27] was 0.015 s⁻¹; in data set [28] it was 0.45 s⁻¹; in the data set on O=CC(O)CO [29] it was 0.583 s⁻¹; in [30] it was 0.288 s⁻¹; in data set [31] it was 0.297 s⁻¹. Besides, the kcat/Km in data set [32] was 21700 M⁻¹ s⁻¹; in data set [33] it was 750000 M⁻¹ s⁻¹; in the data set with O=CC(O)CO [34], 100 M⁻¹ s⁻¹.

`COc1ccc2c(C(=S)N(C)CC(=O)O)cccc2c1C(F)(F)F` returned an Activity in data set [35] of 50%.
